Experiment [1] concerns the target human cytoplasmic γ-actin (human) (UniProt P63261).
Experiment [2] addresses skeletal muscle α-actin (rabbit) (UniProt P68135).
Experiment [3] concerns the target human cytoplasmic β-actin (human) (UniProt P60709).
Experiment [4] concerns the target human cytoplasmic γ-actin (human) (UniProt P63261). This is another data set of the same source.
Experiment [5] addresses skeletal muscle α-actin (rabbit) (UniProt P68135). The source holds these as a separate data set.
The target in experiment [6] is human cytoplasmic β-actin (human) (UniProt P60709). The source holds these as a separate data set.
Experiment [7] concerns the target human cytoplasmic γ-actin (human) (UniProt P63261). The source holds these as a separate data set.

Consider “human nonmuscle myosin-2C1 splice variant motor domain (residues 1–807) fused with two Dictyostelium discoideum α-actinin repeats (domain or fragment)”, for which the Motility rate: sliding velocity of tropomyosin-decorated F-actin in the in vitro motility assay, 30°C in experiment [1] was found to be 61.2 nm/s; in experiment [2], 51.7 nm/s; in experiment [3], 60.9 nm/s. Moreover, the K (app,actin): F-actin concentration for half-maximal activation of steady-state ATPase (NADH-coupled assay, 25°C) in experiment [4], in experiment [5] and in experiment [6] was more than 100 µM in each case. For the same substance, the kcat of actin-activated steady-state ATPase (activity in the presence of 100 µM F-actin) in experiment [4] is 0.36 s⁻¹; in experiment [5], 0.17 s⁻¹; in experiment [6], 0.53 s⁻¹.

On to “human nonmuscle myosin-2B motor domain (residues 1–782) fused with two Dictyostelium discoideum α-actinin repeats (from UniProt P35580 1-782) (domain or fragment)”, for which the Motility rate: sliding velocity of tropomyosin-decorated F-actin in the in vitro motility assay, 30°C in experiment [1] was found to be 32.7 nm/s; in experiment [2], 30.1 nm/s; in experiment [3], 35.2 nm/s. The K (app,actin): F-actin concentration for half-maximal activation of steady-state ATPase (NADH-coupled assay, 25°C) in experiment [4] is 86.9 µM; in experiment [5], 82 µM; in experiment [6] it was 95.1 µM. In addition, the kcat of actin-activated steady-state ATPase was 0.63 s⁻¹ in experiment [4], 0.15 s⁻¹ in experiment [5] and 0.67 s⁻¹ in experiment [6]. The ATP turnover in the flash photolysis experiment (5 µM F-actin), relative to α-actin in experiment [7] amounted to 3 fold.

“human myosin-7A motor domain construct (amino acids 1–747) fused with the artificial lever arm and EYFP (from UniProt Q13402 1-747) (domain or fragment)”: the K (app,actin): F-actin concentration for half-maximal activation of steady-state ATPase (NADH-coupled assay, 25°C) in experiment [4] worked out at 11.3 µM; in experiment [5], 12.3 µM; in experiment [6], 12.3 µM. The values for the kcat of actin-activated steady-state ATPase in experiment [4], in experiment [5] and in experiment [6] were 0.75 s⁻¹, 0.35 s⁻¹ and 0.53 s⁻¹, respectively.

As to “human nonmuscle myosin-2A motor domain (residues 1–775) fused with two Dictyostelium discoideum α-actinin repeats (from UniProt P35579 1-775) (domain or fragment)”, the Motility rate: sliding velocity of tropomyosin-decorated F-actin in the in vitro motility assay, 30°C in experiment [1] came out at 94.6 nm/s; in experiment [2], 76.3 nm/s; in experiment [3], 84.2 nm/s. Besides, the values for the K (app,actin): F-actin concentration for half-maximal activation of steady-state ATPase (NADH-coupled assay, 25°C) in experiment [4], in experiment [5] and in experiment [6] were 88 µM, 80.2 µM and 94.6 µM, respectively. Moreover, the kcat of actin-activated steady-state ATPase in experiment [4] stood at 0.77 s⁻¹; in experiment [5] it was 0.18 s⁻¹; in experiment [6] it was 0.81 s⁻¹.

The record behind these values is PMC3724804.
